Reference: patent publication US20220308072A1

Key:
[1] = molecular target: Recombinant, his tagged full length human frataxin protein (Abcam ab95502) (human) (UniProt Q16595); test: Simoa sandwich 3-step; capture Ab-5
[2] = molecular target: Recombinant, his tagged full length human frataxin protein (Abcam ab95502) (human) (UniProt Q16595); test: Simoa sandwich 3-step; capture Ab-1; frataxin 10000 pg/mL
[3] = molecular target: Recombinant, his tagged full length human frataxin protein (Abcam ab95502) (human) (UniProt Q16595); test: Simoa sandwich 3-step; capture Ab-1
[4] = molecular target: Recombinant, his tagged full length human frataxin protein (Abcam ab95502) (human) (UniProt Q16595); test: Simoa sandwich 3-step; capture Ab-5; frataxin 10000 pg/mL
[5] = molecular target: Recombinant, his tagged full length human frataxin protein (Abcam ab95502) (human) (UniProt Q16595); test: Simoa sandwich 3-step; capture Ab-2; frataxin 1000 pg/mL
[6] = molecular target: Recombinant, his tagged full length human frataxin protein (Abcam ab95502) (human) (UniProt Q16595); test: Simoa sandwich 3-step; capture Ab-5; frataxin 100 pg/mL
[7] = molecular target: Recombinant, his tagged full length human frataxin protein (Abcam ab95502) (human) (UniProt Q16595); test: Simoa sandwich 3-step; capture Ab-1; frataxin 1000 pg/mL
[8] = molecular target: Recombinant, his tagged full length human frataxin protein (Abcam ab95502) (human) (UniProt Q16595); test: Simoa sandwich 3-step; capture Ab-2
[9] = molecular target: Recombinant, his tagged full length human frataxin protein (Abcam ab95502) (human) (UniProt Q16595); test: Simoa sandwich 3-step; capture Ab-4
[10] = molecular target: Recombinant, his tagged full length human frataxin protein (Abcam ab95502) (human) (UniProt Q16595); test: Simoa sandwich 3-step; capture Ab-1; frataxin 100 pg/mL
[11] = molecular target: Recombinant, his tagged full length human frataxin protein (Abcam ab95502) (human) (UniProt Q16595); test: Simoa sandwich 3-step; capture Ab-3
[12] = molecular target: Recombinant, his tagged full length human frataxin protein (Abcam ab95502) (human) (UniProt Q16595); test: Simoa sandwich 3-step; capture Ab-4; frataxin 100 pg/mL
[13] = molecular target: Recombinant, his tagged full length human frataxin protein (Abcam ab95502) (human) (UniProt Q16595); test: Simoa sandwich 3-step; capture Ab-3; frataxin 1000 pg/mL
[14] = molecular target: Recombinant, his tagged full length human frataxin protein (Abcam ab95502) (human) (UniProt Q16595); test: Simoa sandwich 3-step; capture Ab-2; frataxin 10000 pg/mL
[15] = molecular target: Recombinant, his tagged full length human frataxin protein (Abcam ab95502) (human) (UniProt Q16595); test: Simoa sandwich 3-step; capture Ab-5; frataxin 1000 pg/mL
[16] = molecular target: Recombinant, his tagged full length human frataxin protein (Abcam ab95502) (human) (UniProt Q16595); test: Simoa sandwich 3-step; capture Ab-4; frataxin 1000 pg/mL
[17] = molecular target: Recombinant, his tagged full length human frataxin protein (Abcam ab95502) (human) (UniProt Q16595); test: Simoa sandwich 3-step; capture Ab-3; frataxin 100 pg/mL
[18] = molecular target: Recombinant, his tagged full length human frataxin protein (Abcam ab95502) (human) (UniProt Q16595); test: Simoa sandwich 3-step; capture Ab-2; frataxin 100 pg/mL
[19] = molecular target: Recombinant, his tagged full length human frataxin protein (Abcam ab95502) (human) (UniProt Q16595); test: Simoa sandwich 3-step; capture Ab-2; frataxin 10000 pg/mL; remark: listed apart in the source
[20] = molecular target: Recombinant, his tagged full length human frataxin protein (Abcam ab95502) (human) (UniProt Q16595); test: Simoa sandwich 3-step; capture Ab-1; remark: listed apart in the source
[21] = molecular target: Recombinant, his tagged full length human frataxin protein (Abcam ab95502) (human) (UniProt Q16595); test: Simoa sandwich 3-step; capture Ab-1; frataxin 100 pg/mL; remark: listed apart in the source
[22] = molecular target: Recombinant, his tagged full length human frataxin protein (Abcam ab95502) (human) (UniProt Q16595); test: Simoa sandwich 2-step; capture Ab-2; frataxin 1000 pg/mL
[23] = molecular target: Recombinant, his tagged full length human frataxin protein (Abcam ab95502) (human) (UniProt Q16595); test: Simoa sandwich 3-step; capture Ab-2; remark: listed apart in the source
[24] = molecular target: Recombinant, his tagged full length human frataxin protein (Abcam ab95502) (human) (UniProt Q16595); test: Simoa sandwich 2-step; capture Ab-1; frataxin 1000 pg/mL
[25] = molecular target: Recombinant, his tagged full length human frataxin protein (Abcam ab95502) (human) (UniProt Q16595); test: Simoa sandwich 2-step; capture Ab-2; frataxin 10000 pg/mL
[26] = molecular target: Recombinant, his tagged full length human frataxin protein (Abcam ab95502) (human) (UniProt Q16595); test: Simoa sandwich 3-step; capture Ab-2; frataxin 1000 pg/mL; remark: listed apart in the source
[27] = molecular target: Recombinant, his tagged full length human frataxin protein (Abcam ab95502) (human) (UniProt Q16595); test: Simoa sandwich 2-step; capture Ab-2
[28] = molecular target: Recombinant, his tagged full length human frataxin protein (Abcam ab95502) (human) (UniProt Q16595); test: Simoa sandwich 2-step; capture Ab-2; frataxin 100 pg/mL
[29] = molecular target: Recombinant, his tagged full length human frataxin protein (Abcam ab95502) (human) (UniProt Q16595); test: Simoa sandwich 3-step; capture Ab-2; frataxin 100 pg/mL; remark: listed apart in the source
[30] = molecular target: Recombinant, his tagged full length human frataxin protein (Abcam ab95502) (human) (UniProt Q16595); test: Simoa sandwich 2-step; capture Ab-1
[31] = molecular target: Recombinant, his tagged full length human frataxin protein (Abcam ab95502) (human) (UniProt Q16595); test: Simoa sandwich 3-step; capture Ab-4; frataxin 10000 pg/mL
[32] = molecular target: Recombinant, his tagged full length human frataxin protein (Abcam ab95502) (human) (UniProt Q16595); test: Simoa sandwich 3-step; capture Ab-3; frataxin 10000 pg/mL
[33] = molecular target: Recombinant, his tagged full length human frataxin protein (Abcam ab95502) (human) (UniProt Q16595); test: Simoa sandwich 2-step; capture Ab-1; frataxin 10000 pg/mL
[34] = molecular target: Recombinant, his tagged full length human frataxin protein (Abcam ab95502) (human) (UniProt Q16595); test: Simoa sandwich 3-step; capture Ab-1; frataxin 1000 pg/mL; remark: listed apart in the source
[35] = molecular target: Recombinant, his tagged full length human frataxin protein (Abcam ab95502) (human) (UniProt Q16595); test: Simoa sandwich 3-step; capture Ab-1; frataxin 10000 pg/mL; remark: listed apart in the source
[36] = molecular target: Recombinant, his tagged full length human frataxin protein (Abcam ab95502) (human) (UniProt Q16595); test: Simoa sandwich 2-step; capture Ab-1; frataxin 100 pg/mL

Chain of UniProt Q16595 (Q16595 42-210): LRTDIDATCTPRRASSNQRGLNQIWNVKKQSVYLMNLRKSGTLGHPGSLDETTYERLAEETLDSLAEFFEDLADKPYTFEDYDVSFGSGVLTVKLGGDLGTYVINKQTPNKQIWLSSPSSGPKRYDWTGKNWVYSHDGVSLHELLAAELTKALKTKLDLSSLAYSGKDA

For “Ab-2, unconjugated mouse monoclonal to Human Frataxin FXN (LSBio LS-C755462) (antibody)”, the LOD [1] was 4.43 pg/mL, the Ave AEB [2] was 1.05 AEB and the S/B [2] was 892. The LOD [3] was 5.71 pg/mL, the Ave AEB [4] was 29.5 AEB and the S/B [4] was 302. The Ave AEB [5] was 0.101 AEB, the S/B [5] was 80.4 and the Ave AEB [6] was 0.961 AEB. For the same substance, the S/B [6] was 9.84, the Ave AEB [7] was 0.107 AEB and the S/B [7] was 90.8. It also gave an LOD [8] of 9.76 pg/mL, an LOD [9] of 89.6 pg/mL and an Ave AEB [10] of 0.0088 AEB. For the same substance, the S/B [10] was 7.44, the LOD [11] was 18 pg/mL and the Ave AEB [12] was 4.73 AEB. It also gave a S/B [12] of 1.29, an Ave AEB [13] of 11.6 AEB and a S/B [13] of 11.3. The Ave AEB [14] was 0.83 AEB, the S/B [14] was 659 and the Ave AEB [15] was 9.35 AEB. The S/B [15] was 95.7, the Ave AEB [16] was 13.6 AEB and the S/B [16] was 3.71. The Ave AEB [17] was 2.42 AEB, the S/B [17] was 2.36 and the Ave AEB [18] was 0.0068 AEB. It also gave a S/B [18] of 5.41.

In the case of “Ab-1, unconjugated mouse monoclonal to human Frataxin (LSBio LS-C760752) (antibody)”, the LOD [1] was 4.85 pg/mL, the Ave AEB [2] was 1.19 AEB and the Ave AEB [4] was 28.9 AEB. For the same substance, the S/B [4] was 324, the Ave AEB [5] was 0.0712 AEB and the S/B [5] was 46.2. It also gave an Ave AEB [6] of 0.834 AEB, a S/B [6] of 9.35 and an Ave AEB [7] of 0.0953 AEB. For the same substance, the LOD [8] was 7.78 pg/mL, the LOD [9] was 66 pg/mL and the Ave AEB [10] was 0.007 AEB. For the same substance, the LOD [11] was 23.8 pg/mL, the Ave AEB [12] was 4.72 AEB and the S/B [12] was 1.37. For the same substance, the Ave AEB [13] was 10.3 AEB, the S/B [13] was 11 and the Ave AEB [14] was 1.36 AEB. For the same substance, the S/B [14] was 885, the Ave AEB [15] was 8.56 AEB and the S/B [15] was 95.9. The Ave AEB [16] was 12.4 AEB, the S/B [16] was 3.63 and the Ave AEB [17] was 1.92 AEB. The S/B [17] was 2.05, the Ave AEB [18] was 0.0069 AEB and the S/B [18] was 4.45.

“Ab-5, rabbit polyclonal to recombinant full-length Human Frataxin (Abcam ab175402) (antibody)” showed an LOD [1] of 7.44 pg/mL, an Ave AEB [19] of 9.03 AEB and a S/B [19] of 434. It also gave an LOD [20] of 5.12 pg/mL, an Ave AEB [2] of 5.93 AEB and a S/B [2] of 602. The LOD [3] was 2.95 pg/mL, the Ave AEB [21] was 0.152 AEB and the S/B [21] was 6.28. It also gave an Ave AEB [4] of 21.7 AEB, a S/B [4] of 220 and an Ave AEB [22] of 13.1 AEB. The S/B [22] was 228, the Ave AEB [5] was 1.03 AEB and the S/B [5] was 65. It also gave an Ave AEB [6] of 0.573 AEB, a S/B [6] of 5.82 and an LOD [23] of 4.9 pg/mL. The Ave AEB [7] was 0.998 AEB, the S/B [7] was 101 and the LOD [8] was 4.62 pg/mL. The LOD [9] was 52.8 pg/mL, the Ave AEB [10] was 0.106 AEB and the S/B [10] was 10.8. The LOD [11] was 33.6 pg/mL, the Ave AEB [24] was 12.4 AEB and the S/B [24] was 212. It also gave an Ave AEB [25] of 28.4 AEB, a S/B [25] of 497 and an Ave AEB [26] of 1.59 AEB. For the same substance, the S/B [26] was 76.4, the LOD [27] was 1.88 pg/mL and the Ave AEB [12] was 0.814 AEB. It also gave a S/B [12] of 1.51, an Ave AEB [13] of 2.64 AEB and a S/B [13] of 10.1. For the same substance, the Ave AEB [28] was 1.49 AEB, the S/B [28] was 26.1 and the Ave AEB [29] was 0.16 AEB. The S/B [29] was 7.69, the LOD [30] was 1.27 pg/mL and the Ave AEB [14] was 5.41 AEB. The S/B [14] was 343, the Ave AEB [31] was 23.7 AEB and the S/B [31] was 44.1. For the same substance, the Ave AEB [32] was 20.5 AEB, the S/B [32] was 78.8 and the Ave AEB [15] was 5.53 AEB. The S/B [15] was 56.2, the Ave AEB [33] was 29.3 AEB and the S/B [33] was 502. The Ave AEB [34] was 1.31 AEB, the S/B [34] was 53.9 and the Ave AEB [16] was 3.95 AEB. The S/B [16] was 7.32, the Ave AEB [17] was 0.469 AEB and the S/B [17] was 1.8. It also gave an Ave AEB [35] of 8.37 AEB, a S/B [35] of 346 and an Ave AEB [18] of 0.115 AEB. It also gave a S/B [18] of 7.3, an Ave AEB [36] of 1.61 AEB and a S/B [36] of 27.6.
